Results published in patent publication US20040106773A1 (priority 2003, published 2004).

Experiments:
F-11 cells = conditions: DRG-like F-11 cells; cited from earlier work
rat PTH2R [1] = target: rat PTH2R (rat, UniProt P70555 25-546); assay: cell-based or functional assay
human PTH2R [2] = target: T1, human PTH2R (Homo sapiens, UniProt P49190); assay: cAMP SPA assay for PTH2R activation, human PTH2R; format: cell-based; conditions: HEK293 cells expressing human PTH2R, FIG. 4B
T1 construct: expressed in transfected cells
Description: (§1) HEK293 cells were transfected with rat and human PTH2R and cell lines that stably express the receptors were established and evaluated. One cell line was selected for each rat and human PTH2R and used for all the functional assays. Specifically, HEK293 cells were transfected with pCDNA3.1/V5-His-RatPTH2R plasmid DNA and pCDNA3.1-E/Uni-lacZ-HumanPTH2R plasmid DNA using FuGENE 6 transfection reagent (Roche Molecular Biochemicals). Three days after transfection, cells were put under selection with 800 μg/ml geneticin (G418, Gibco BRL). After three weeks of selection, single colonies were cloned using cloning cylinders. Cloned colonies were scaled up to T25 flasks. More than 10 cell lines for each plasmid were tested for function in the cAMP SPA assay.
(§2) HEK293PTH2R cells were seeded in a 96-well poly-D-lysine coated plate at 100,000 cells per well and cultured overnight. After washing with 200 μl of PBS and treating with 100 μl of 300 nM IBMX in assay medium (MEM without phenol red and FBS) at 37° C. for 10 min. The assay medium was then aspirated and the cells were washed with PBS. The cellular of cAMP was measured using cAMP SPA Direct Screening (Amersham/Pharmacia RPA559). Each concentration of ligand was repeated as triplicate.

rat PTH2R [3] = target: T2, rat PTH2R (Rattus norvegicus, UniProt P70555); assay: cAMP SPA assay for PTH2R activation, rat PTH2R; format: cell-based; conditions: HEK293 cells expressing rat PTH2R, FIG. 4A
T2 construct: V5-His (appears only in the vector name); expressed in transfected cells
Description: as §1, §2

human PTH2R [4] = target: T1, human PTH2R; assay: Measurement of [Ca2+]i using the FLIPR, human PTH2R; format: cell-based; conditions: human PTH2R expressing HEK293 cells
Description: as §1
(§3) HEK293 cells were seeded into […] clear-base 96 well plates (BD Biocoat) coated with poly-D-lysine at a density of 100,000 cells per well in MEM, and cultured overnight.
(§4) Curve-fitting and parameter estimation were carried out using Graph Pad Prism, 3.00 (GraphPad Software Inc., California, U.S.A.).

rat PTH2R [5] = target: T2, rat PTH2R; assay: Measurement of [Ca2+]i using the FLIPR, rat PTH2R; format: cell-based
Description: as §1, §3, §4

human PTH2R [6] = target: human PTH2R (human, UniProt P49190 25-550); assay: cell-based or functional assay
Sequence of human PTH2R (human, UniProt P49190 25-550) (P49190 25-550): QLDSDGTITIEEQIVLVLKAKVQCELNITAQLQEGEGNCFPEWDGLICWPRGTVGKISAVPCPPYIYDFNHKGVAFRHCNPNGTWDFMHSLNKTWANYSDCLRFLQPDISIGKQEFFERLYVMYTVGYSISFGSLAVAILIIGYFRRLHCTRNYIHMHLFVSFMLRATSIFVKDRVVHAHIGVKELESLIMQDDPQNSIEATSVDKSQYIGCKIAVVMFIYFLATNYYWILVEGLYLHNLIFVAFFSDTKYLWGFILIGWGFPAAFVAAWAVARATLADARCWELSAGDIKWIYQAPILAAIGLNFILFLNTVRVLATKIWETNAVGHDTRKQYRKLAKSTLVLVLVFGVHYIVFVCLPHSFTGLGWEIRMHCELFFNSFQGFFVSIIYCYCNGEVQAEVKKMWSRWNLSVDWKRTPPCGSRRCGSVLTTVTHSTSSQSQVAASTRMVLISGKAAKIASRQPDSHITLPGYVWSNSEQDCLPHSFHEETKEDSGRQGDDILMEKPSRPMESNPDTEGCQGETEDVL

Sequence of rat PTH2R (rat, UniProt P70555 25-546) (P70555 25-546): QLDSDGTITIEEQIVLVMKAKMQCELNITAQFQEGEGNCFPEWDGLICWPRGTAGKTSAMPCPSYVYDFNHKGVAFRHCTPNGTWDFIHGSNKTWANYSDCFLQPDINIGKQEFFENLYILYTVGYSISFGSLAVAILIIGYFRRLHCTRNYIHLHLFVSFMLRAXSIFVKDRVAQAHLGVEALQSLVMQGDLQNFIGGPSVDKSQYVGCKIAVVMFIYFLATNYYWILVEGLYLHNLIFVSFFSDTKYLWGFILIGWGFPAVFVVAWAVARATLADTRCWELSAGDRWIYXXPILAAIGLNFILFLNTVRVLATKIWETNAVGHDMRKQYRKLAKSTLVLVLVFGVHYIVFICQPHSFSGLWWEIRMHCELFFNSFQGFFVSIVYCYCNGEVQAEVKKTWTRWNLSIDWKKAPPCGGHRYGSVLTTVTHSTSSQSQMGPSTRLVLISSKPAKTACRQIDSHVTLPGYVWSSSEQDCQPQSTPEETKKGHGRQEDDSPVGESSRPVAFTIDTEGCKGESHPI
T2 sequence (P70555 25-546): as above
T1 sequence (P49190 25-550): as the sequence (P49190 25-550) above

Q: With “bovine tuberoinfundibular peptide of 39 residues [bTIP39]” as the molecule, how does the “effect on cAMP” value (F-11 cells) read?
A: increases cAMP

Q: Which logEC50, cAMP increase (cAMP SPA assay) in HEK293 cells stably expressing rat PTH2R (rat PTH2R [1]) does the source give for “human PTH (1-34) (from UniProt P01270 32-65) (peptide)” here?
A: -9.3

Q: And the maximal level of cAMP (pmol/100,000 cells) (rat PTH2R [1])?
A: < 29

Q: Which results are given for human PTH(1-34)?
A: relative potency, cAMP (human PTH2R [2]): slightly less potent than the other peptides; relative potency, cAMP (rat PTH2R [3]): slightly less potent; agonist character, [Ca2+]i response (human PTH2R [4]): little response; agonist character, [Ca2+]i response (rat PTH2R [5]; rat PTH2R expressing HEK293 cells): little response if any

Q: What does the source list for rat PTH(1-34)?
A: maximum response compared to that elicited by human TIP39 (human PTH2R [4]; [Ca2+]i FLIPR): 42±2%; maximum response compared to that of human TIP39 (rat PTH2R [5]; rat PTH2R expressing cells, [Ca2+]i FLIPR): ~30%

Q: Which maximal level of cAMP (pmol/100,000 cells) (rat PTH2R [1]) does the source give for “rat PTH(1-34) (from UniProt P04089 32-65) (peptide)” here?
A: < 29

Q: What about the maximum [Ca2+]i response compared to that of human TIP39 (rat PTH2R [1]) of the same molecule?
A: 30%

B1: mouse tuberoinfundibular peptide of 39 residues (peptide)
peptide: SLALADDAAFRERARLLAALERRRWLDSYMQKLLLLDAP
Q: For B1, which “logEC50, [Ca2+]i increase (FLIPR)” value (rat PTH2R [1]) is on record?
A: -7.3

Q: What about the “logEC50, cAMP increase (cAMP SPA assay) in HEK293 cells stably expressing rat PTH2R” value (rat PTH2R [1]) of the same molecule?
A: -9.9

Q: What about the “logEC50, [Ca2+]i increase (FLIPR)” value (human PTH2R [6]) of the same molecule?
A: -7.8

Q: And the “logEC50, cAMP increase (cAMP SPA assay) in HEK293 cells stably expressing human PTH2R” value (human PTH2R [6])?
A: -9.7
